The values below come from PMC7913765, “Dynamics of the HD regulatory subdomain of PARP-1; substrate access and allostery in PARP activation and inhibition”.

Settings in all cases: protein: recombinant; tags: N-terminal 6His-6Lys tag, TEV site; label: biotin (internal dT, streptavidin chip); dumbbell of two hairpins with T7 loops, nick between the 5' and 3' ends; stems 13 and 12 bp
The target in data set [1] is T1, PARP-1 full-length (human, UniProt P09874 2-1014). The data set can be described thus: SPR; no inhibitor; SPR (Biacore 8K): 20 mM HEPES, 150 mM NaCl, 1 mM TCEP, 0.05% Tween-20, 1% (v/v) (component not given), pH not stated, 25 C; PARP-1 0.078-20 nM; n = 6.
In data set [2] the target is T1, PARP-1 full-length. The data set can be described thus: SPR; EB-47 (100 mM [sic]); SPR (Biacore 8K): 20 mM HEPES, 150 mM NaCl, 1 mM TCEP, 0.05% Tween-20, 1% (v/v) (component not given), pH not stated, 25 C; PARP-1 0.078-20 nM; n = 6. In general terms: Surface plasmon resonance follows binding to a sensor surface in real time, without labels.
Data set [3] concerns the target T1, PARP-1 full-length. Description: SPR; veliparib (10 mM [sic]); SPR (Biacore 8K): 20 mM HEPES, 150 mM NaCl, 1 mM TCEP, 0.05% Tween-20, 1% (v/v) (component not given), pH not stated, 25 C; PARP-1 0.078-20 nM; n = 6.
Data set [4] concerns the target T1, PARP-1 full-length. Description: SPR; olaparib (10 mM [sic]); SPR (Biacore 8K): 20 mM HEPES, 150 mM NaCl, 1 mM TCEP, 0.05% Tween-20, 1% (v/v) (component not given), pH not stated, 25 C; PARP-1 0.078-20 nM; n = 6.

T1 sequence (P09874 2-1014): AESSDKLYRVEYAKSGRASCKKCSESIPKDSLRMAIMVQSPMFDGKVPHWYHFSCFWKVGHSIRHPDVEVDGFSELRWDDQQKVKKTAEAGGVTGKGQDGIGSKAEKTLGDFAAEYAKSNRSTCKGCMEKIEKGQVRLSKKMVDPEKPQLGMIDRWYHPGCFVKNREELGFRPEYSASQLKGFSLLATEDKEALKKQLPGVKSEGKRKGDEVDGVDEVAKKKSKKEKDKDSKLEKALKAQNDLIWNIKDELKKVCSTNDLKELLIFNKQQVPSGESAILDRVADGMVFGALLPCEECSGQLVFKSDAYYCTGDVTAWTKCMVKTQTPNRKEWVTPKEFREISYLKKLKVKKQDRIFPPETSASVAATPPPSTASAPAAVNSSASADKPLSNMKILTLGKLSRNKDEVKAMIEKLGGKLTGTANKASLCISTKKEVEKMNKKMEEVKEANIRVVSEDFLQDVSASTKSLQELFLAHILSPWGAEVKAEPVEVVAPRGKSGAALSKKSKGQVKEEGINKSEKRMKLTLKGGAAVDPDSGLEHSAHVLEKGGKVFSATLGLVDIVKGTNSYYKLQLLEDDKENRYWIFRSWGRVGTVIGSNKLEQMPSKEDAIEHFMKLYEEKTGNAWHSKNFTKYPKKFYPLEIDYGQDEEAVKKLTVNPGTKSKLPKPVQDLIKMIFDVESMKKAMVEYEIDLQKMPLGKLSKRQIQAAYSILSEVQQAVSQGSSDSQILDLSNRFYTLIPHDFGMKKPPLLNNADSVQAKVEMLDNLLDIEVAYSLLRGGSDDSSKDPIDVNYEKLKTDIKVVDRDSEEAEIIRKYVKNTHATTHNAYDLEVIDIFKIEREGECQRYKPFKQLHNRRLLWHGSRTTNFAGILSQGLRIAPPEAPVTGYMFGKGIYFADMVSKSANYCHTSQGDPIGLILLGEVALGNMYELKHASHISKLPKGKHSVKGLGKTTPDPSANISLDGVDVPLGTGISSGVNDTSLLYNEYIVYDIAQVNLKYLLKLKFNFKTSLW

B1: biotinylated hairpin DNA (dumbbell single-strand break model) (structured_DNA)
DNA: GACAACCCGGCGCTTTTTTTGCGCCGGGTTGTCTGGCCCAGTTCGTTTTTTTCGAACTGGGCCA
modifications: biotin-dT at position 17 (written as T; between S1 and S2)
In the case of B1, the Kd (usually the free concentration of one partner at which half of the binding sites on the other are occupied at equilibrium, for simple one-to-one binding) with PARP-1 full-length [1] was 2.1 nM; in the data set with PARP-1 full-length [2], 0.13 nM; with PARP-1 full-length [3] it was 4.2 nM; with PARP-1 full-length [4], 2.1 nM.
